Three substances from US20250197889 can be followed below.

As to Nme1Cas9-Nme2Cas9PID chimera, in the series with AcrIIC5Smu, the “in vitro cleavage by the Nme1Cas9-Nme2Cas9PID chimera in the presence of Acr” value was “no inhibition by AcrIIC5Smu on this protein chimera was observed”.
On to “Nme2Cas9 (Neisseria meningitidis strain De10444/De11444 Cas9), recombinant purified protein”, for which the “in vitro cleavage of a target DNA by Cas9-sgRNA (10:1 Acr:Cas9 molar ratio)” value in the series with AcrIIC3Nme was “Acrs IIC1Nme, -IIC2Nme, -IIC3Nme and -IIC4Hpa inhibited Nme2Cas9 gene editing activity”; with AcrIIC1Nme, “Acrs IIC1Nme, -IIC2Nme, -IIC3Nme and -IIC4Hpa inhibited Nme2Cas9 gene editing activity”; in the series with AcrIIC4Hpa, “Acrs IIC1Nme, -IIC2Nme, -IIC3Nme and -IIC4Hpa inhibited Nme2Cas9 gene editing activity”; with AcrIIC5Smu it was “AcrIIC5Smu did not inhibit Nme2Cas9 in vitro even at 10-fold excess”; in the series with AcrIIC2Nme, “Acrs IIC1Nme, -IIC2Nme, -IIC3Nme and -IIC4Hpa inhibited Nme2Cas9 gene editing activity”. The “in vitro cleavage of a target DNA by Cas9-sgRNA (10:1 ratio of Acr:Cas9)” value in the series on AcrE2 was “Nme2Cas9 efficiently cleaves a target containing a protospacer with an N4CC PAM in the presence of AcrE2 and AcrIIC5Smu”.
Consider SmuCas9 (Simonsiella muelleri Cas9), for which, in the series with certain anti-CRISPRs, the “Type II-C Cas9 ortholog cleavage tested for sensitivity to anti-CRISPR proteins” value is reported as “all three Type II-C Cas9 orthologs are inhibited by certain anti-CRISPRs”.
